For assay [1], the target named is T1, MLL1 (Homo sapiens).
T1 chain: {fluorescein-βAla}-SDIMDFVLKNTP-NH2
Nature of the assay: fluorescence polarization.

Assay [2] concerns the target T2, MLL-WT (Homo sapiens).
T2 chain: {fluorescein-βAla}-DCGNILPSDIMDFVLKNTP-NH2
The assay can be described thus: fluorescence polarization.

Assay [3] has as its target T3, MLL-WT (Homo sapiens).
T3 chain: Ac-DCGNILPSDIMDFVLKNTP-NH2
Nature of the assay: fluorescence polarization competition.

The target in assay [4] is T4, MLL1 (Homo sapiens).
T4 chain: Ac-SDIMDFVLKNTP-NH2
The assay can be described thus: fluorescence polarization competition.

βAla = NCCC(=O)O

B1: KIX domain of CBP KIX (protein)
chain: not shown
Regarding B1, the Kd with MLL1 [1] was over 100 µM; in the assay with MLL-WT [2], 1 µM. For the same molecule, the Ki with MLL-WT [3] was 3 µM; in the assay with MLL1 [4], over 1000 µM.

The values are drawn from article PMC5677581 (2017).
